Test results from patent US20190017997.
Numbering of substitutions follows the chain as printed. Numbers in names are those of the source.

Tests used:
CRTC1 S151A = molecular target: T1, CRTC1 S151A
T1 chain: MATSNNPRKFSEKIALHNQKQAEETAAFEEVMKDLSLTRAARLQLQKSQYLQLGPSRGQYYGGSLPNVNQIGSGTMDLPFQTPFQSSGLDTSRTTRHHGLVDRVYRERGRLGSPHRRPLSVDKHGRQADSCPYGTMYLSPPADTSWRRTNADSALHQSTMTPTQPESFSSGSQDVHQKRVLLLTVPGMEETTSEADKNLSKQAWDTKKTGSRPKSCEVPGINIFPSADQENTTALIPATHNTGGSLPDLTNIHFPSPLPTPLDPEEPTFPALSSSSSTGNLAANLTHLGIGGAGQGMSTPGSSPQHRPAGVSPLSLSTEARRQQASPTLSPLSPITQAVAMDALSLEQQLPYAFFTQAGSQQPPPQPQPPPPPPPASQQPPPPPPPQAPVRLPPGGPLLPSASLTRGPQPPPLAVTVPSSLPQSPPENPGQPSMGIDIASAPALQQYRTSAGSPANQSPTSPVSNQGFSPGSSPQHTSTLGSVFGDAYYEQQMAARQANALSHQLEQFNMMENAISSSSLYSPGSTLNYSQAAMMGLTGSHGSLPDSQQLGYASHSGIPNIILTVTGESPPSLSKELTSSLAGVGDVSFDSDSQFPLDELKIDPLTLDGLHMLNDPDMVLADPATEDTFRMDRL

[1] = molecular target: T2, CRTC1 (CREB-regulated transcription coactivator 1)
T2 chain: T1 chain with A151S

[2] = molecular target: CREB (cyclic adenosine 3',5'-monophosphate response element-binding protein), P16220
Sequence of CREB (cyclic adenosine 3',5'-monophosphate response element-binding protein), P16220 (P16220 whole entry): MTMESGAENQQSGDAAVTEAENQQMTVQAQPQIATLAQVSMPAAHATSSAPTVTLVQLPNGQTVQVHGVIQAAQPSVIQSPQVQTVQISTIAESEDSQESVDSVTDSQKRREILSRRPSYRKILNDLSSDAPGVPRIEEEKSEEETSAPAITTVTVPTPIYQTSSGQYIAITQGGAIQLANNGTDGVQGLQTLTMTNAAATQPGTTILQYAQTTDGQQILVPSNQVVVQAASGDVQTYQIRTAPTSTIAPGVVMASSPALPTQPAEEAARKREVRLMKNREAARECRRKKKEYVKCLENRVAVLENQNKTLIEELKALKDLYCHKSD

CRTC1 S151A/S215A = molecular target: T3, CRTC1 S151A/S215A
T3 chain: T1 chain with S215A

CRTC1 S151A/T449A = molecular target: T4, CRTC1 S151A/T449A
T4 chain: T1 chain with T449A

B1: PAK4 (p21-activated kinase 4) (protein)
chain: MFGKRKKRVEISAPSNFEHRVHTGFDQHEQKFTGLPRQWQSLIEESARRPKPLVDPACITSIQPGAPKTIVRGSKGAKDGALTLLLDEFENMSVTRSNSLRRDSPPPPARARQENGMPEEPATTARGGPGKAGSRGRFAGHSEAGGGSGDRRRAGPEKRPKSSREGSGGPQESSRDKRPLSGPDVGTPQPAGLASGAKLAAGRPFNTYPRADTDHPSRGAQGEPHDVAPNGPSAGGLAIPQSSSSSSRPPTRARGAPSPGVLGPHASEPQLAPPACTPAAPAVPGPPGPRSPQREPQRVSHEQFRAALQLVVDPGDPRSYLDNFIKIGEGSTGIVCIATVRSSGKLVAVKKMDLRKQQRRELLFNEVVIMRDYQHENVVEMYNSYLVGDELWVVMEFLEGGALTDIVTHTRMNEEQIAAVCLAVLQALSVLHAQGVIHRDIKSDSILLTHDGRVKLSDFGFCAQVSKEVPRRKSLVGTPYWMAPELISRLPYGPEVDIWSLGIMVIEMVDGEPPYFNEPPLKAMKMIRDNLPPRLKNLHKVSPSLKGFLDRLLVRDPAQRATAAELLKHPFLAKAGPPASIVPLMRQNRTR
phosphorylation by PAK4 (kinase analysis of CRTC1 variants) (CRTC1 S151A): CRTC1^S151A and CRTC1^S151A/T449A were slightly phosphorylated | phosphorylation of CRTC1 (in vitro kinase assay) [1]: PAK4 phosphorylates CRTC1 | phosphorylation of CREB [2]: PAK4 does not induce phosphorylation of CREB | phosphorylation by PAK4 (kinase analysis of CRTC1 variants) (CRTC1 S151A/S215A): CRTC1^S151A/S215A, was not phosphorylated | phosphorylation by PAK4 (kinase analysis of CRTC1 variants) (CRTC1 S151A/T449A): CRTC1^S151A and CRTC1^S151A/T449A were slightly phosphorylated

B2: caPAK4 (PAK4 S445N/S474E, constitutively active PAK4) (protein)
chain: B1 chain with S445N, S474E
substrate of the kinase (kinase analysis) [1]: CRTC1 is a substrate of caPAK4
